# Test results reported in article PMC6698644 (Nucleic Acids Research, 2019).
# T1: LeuO-His6 (wild type) (Escherichia coli K12, UniProt P10151 1-314)
# T1 sequence: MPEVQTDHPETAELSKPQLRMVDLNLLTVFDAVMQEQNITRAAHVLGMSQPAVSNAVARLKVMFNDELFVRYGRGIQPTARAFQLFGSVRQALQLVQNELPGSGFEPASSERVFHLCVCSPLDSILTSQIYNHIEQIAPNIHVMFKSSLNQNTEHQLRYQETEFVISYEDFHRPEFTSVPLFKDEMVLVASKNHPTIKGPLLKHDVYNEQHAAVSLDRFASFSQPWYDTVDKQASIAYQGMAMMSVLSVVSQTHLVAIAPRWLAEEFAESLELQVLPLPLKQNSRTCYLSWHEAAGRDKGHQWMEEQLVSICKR
# T2: LeuO-S120D-His6 (Escherichia coli K12, UniProt P10151 1-314, S120D)
# T2 sequence: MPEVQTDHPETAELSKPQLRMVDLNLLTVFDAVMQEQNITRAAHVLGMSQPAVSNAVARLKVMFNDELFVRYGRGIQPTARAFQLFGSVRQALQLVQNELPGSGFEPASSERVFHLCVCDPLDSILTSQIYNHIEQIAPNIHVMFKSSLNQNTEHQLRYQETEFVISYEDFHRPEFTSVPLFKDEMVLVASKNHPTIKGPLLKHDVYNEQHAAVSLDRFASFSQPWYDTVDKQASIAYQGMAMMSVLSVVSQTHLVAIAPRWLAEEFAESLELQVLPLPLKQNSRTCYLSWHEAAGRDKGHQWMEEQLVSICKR
# T3: LeuO-DBD-His6 (Escherichia coli K12, UniProt P10151 1-101)
# T3 sequence: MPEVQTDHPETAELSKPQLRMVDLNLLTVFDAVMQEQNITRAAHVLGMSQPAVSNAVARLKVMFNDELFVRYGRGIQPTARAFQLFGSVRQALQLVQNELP
# Key:
# LeuO-His6 (wild type) [1] = target: T1, LeuO-His6 (wild type); experiment: SPR
# LeuO-S120D-His6 [2] = target: T2, LeuO-S120D-His6; experiment: SPR
# crystal structure = target: the molecule itself; experiment: crystal structure
# SEC = target: the molecule itself; experiment: SEC
# LeuO-His6 (wild type) [3] = target: T1, LeuO-His6 (wild type); experiment: gel filtration
# LeuO-S120D-His6 [4] = target: T2, LeuO-S120D-His6; experiment: gel filtration
# LeuO-His6 (wild type) [5] = target: T1, LeuO-His6 (wild type); experiment: SPR; remark: listed apart in the source
# LeuO-DBD-His6 = target: T3, LeuO-DBD-His6; experiment: SPR
# LeuO-S120D-His6 [6] = target: T2, LeuO-S120D-His6; experiment: SPR; remark: listed apart in the source
binder,measurement,setting,value
"SPR fragment A, cas LeuO site II (60 bp) (dsDNA) DNA 1: GGGGGTTTATATTCACAGTATGAATATTTTATGTAATAAAATTCATGGTAATTATTATAACTAAAGGGGG DNA 2: CCCCCTTTAGTTATAATAATTACCATGAATTTTATTACATAAAATATTCATACTGTGAATATAAACCCCC",Kd,LeuO-His6 (wild type) [1],0.7 nM
same,Kd,LeuO-S120D-His6 [2],0.2 nM
"LeuO-S120D effector-binding domain, C-terminally histidine-tagged (LeuO-S120D-EBD_(His6)) (domain or fragment, Escherichia coli) SSERVFHLCVCDPLDSILTSQIYNHIEQIAPNIHVMFKSSLNQNTEHQLRYQETEFVISYEDFHRPEFTSVPLFKDEMVLVASKNHPTIKGPLLKHDVYNEQHAAVSLDRFASFSQPWYDTVDKQASIAYQGMAMMSVLSVVSQTHLVAIAPRWLAEEFAESLELQVLPLPLKQNSRTCYLSWHEAAGRDKGHQWMEEQLVSICKR",binding result,crystal structure,binds
"LeuO, C-terminally histidine-tagged (LeuO_(His6)) (natural protein, Escherichia coli, UniProt P10151 1-314, looked up) MPEVQTDHPETAELSKPQLRMVDLNLLTVFDAVMQEQNITRAAHVLGMSQPAVSNAVARLKVMFNDELFVRYGRGIQPTARAFQLFGSVRQALQLVQNELPGSGFEPASSERVFHLCVCSPLDSILTSQIYNHIEQIAPNIHVMFKSSLNQNTEHQLRYQETEFVISYEDFHRPEFTSVPLFKDEMVLVASKNHPTIKGPLLKHDVYNEQHAAVSLDRFASFSQPWYDTVDKQASIAYQGMAMMSVLSVVSQTHLVAIAPRWLAEEFAESLELQVLPLPLKQNSRTCYLSWHEAAGRDKGHQWMEEQLVSICKR",stoichiometry N,SEC,4
"LeuO-S120D, C-terminally histidine-tagged (LeuO-S120D_(His6)) (natural protein, Escherichia coli, UniProt P10151 1-314, looked up) MPEVQTDHPETAELSKPQLRMVDLNLLTVFDAVMQEQNITRAAHVLGMSQPAVSNAVARLKVMFNDELFVRYGRGIQPTARAFQLFGSVRQALQLVQNELPGSGFEPASSERVFHLCVCDPLDSILTSQIYNHIEQIAPNIHVMFKSSLNQNTEHQLRYQETEFVISYEDFHRPEFTSVPLFKDEMVLVASKNHPTIKGPLLKHDVYNEQHAAVSLDRFASFSQPWYDTVDKQASIAYQGMAMMSVLSVVSQTHLVAIAPRWLAEEFAESLELQVLPLPLKQNSRTCYLSWHEAAGRDKGHQWMEEQLVSICKR",stoichiometry N,SEC,4
"gel filtration fragment, cas LeuO site II (60 bp) (dsDNA) DNA 1: TTTATATTCACAGTATGAATATTTTATGTAATAAAATTCATGGTAATTATTATAACTAAA DNA 2: TTTAGTTATAATAATTACCATGAATTTTATTACATAAAATATTCATACTGTGAATATAAA",binding result,LeuO-His6 (wild type) [3],binds
same,binding result,LeuO-S120D-His6 [4],binds
"SPR fragment C, scrambled (60 bp) (dsDNA) DNA 1: GGGGGGTAAATTACATAATGCGATTAAAATTTATTTTCAAAAGTTTAATTTAACATTGAATTTATGGGGG DNA 2: CCCCCATAAATTCAATGTTAAATTAAACTTTTGAAAATAAATTTTAATCGCATTATGTAATTTACCCCCC",binding result,LeuO-His6 (wild type) [5],no binding
same,binding result,LeuO-DBD-His6,no binding
same,binding result,LeuO-S120D-His6 [6],no binding
"SPR fragment B, cas core-site (25 bp) (dsDNA) DNA 1: GGGGGTTTATATTCACAGTATGAATATTTTGGGGG DNA 2: CCCCCAAAATATTCATACTGTGAATATAAACCCCC",Kd,LeuO-His6 (wild type) [1],0.9 nM
same,Kd,LeuO-S120D-His6 [2],0.6 nM
